Test results published in US20110263454A1, “Methods of Identifying Functional Characteristics of Promoters, Transcription Modifying Proteins and Transcription Modulating Agents” (Salk Institute for Biological Studies, priority 2008, published 2011).

B1: NR4a3: NR4a3 (NR4A3; NOR1), nuclear hormone receptor cDNA driver (protein, UniProt Q92570 1-626, looked up)
Nuclear receptor subfamily 4 …: MPCVQAQYSPSPPGSSYAAQTYSSEYTTEIMNPDYTKLTMDLGSTEITATATTSLPSISTFVEGYSSNYELKPSCVYQMQRPLIKVEEGRAPSYHHHHHHHHHHHHHHQQQHQQPSIPPASSPEDEVLPSTSMYFKQSPPSTPTTPAFPPQAGALWDEALPSAPGCIAPGPLLDPPMKAVPTVAGARFPLFHFKPSPPHPPAPSPAGGHHLGYDPTAAAALSLPLGAAAAAGSQAAALESHPYGLPLAKRAAPLAFPPLGLTPSPTASSLLGESPSLPSPPSRSSSSGEGTCAVCGDNAACQHYGVRTCEGCKGFFKRTVQKNAKYVCLANKNCPVDKRRRNRCQYCRFQKCLSVGMVKEVVRTDSLKGRRGRLPSKPKSPLQQEPSQPSPPSPPICMMNALVRALTDSTPRDLDYSRYCPTDQAAAGTDAEHVQQFYNLLTASIDVSRSWAEKIPGFTDLPKEDQTLLIESAFLELFVLRLSIRSNTAEDKFVFCNGLVLHRLQCLRGFGEWLDSIKDFSLNLQSLNLDIQALACLSALSMITERHGLKEPKRVEELCNKITSSLKDHQSKGQALEPTESKVLGALVELRKICTLGLQRIFYLKLEDLVSPPSIIDKLFLDTLPF
B2: GCNF: Germ Cell Nuclear Factor (NR6A1, GCNF1), cDNA driver (protein, UniProt Q15406 1-480, looked up)
Nuclear receptor subfamily 6 …: MERDEPPPSGGGGGGGSAGFLEPPAALPPPPRNGFCQDELAELDPGTISVSDDRAEQRTCLICGDRATGLHYGIISCEGCKGFFKRSICNKRVYRCSRDKNCVMSRKQRNRCQYCRLLKCLQMGMNRKAIREDGMPGGRNKSIGPVQISEEEIERIMSGQEFEEEANHWSNHGDSDHSSPGNRASESNQPSPGSTLSSSRSVELNGFMAFREQYMGMSVPPHYQYIPHLFSYSGHSPLLPQQARSLDPQSYSLIHQLLSAEDLEPLGTPMLIEDGYAVTQAELFALLCRLADELLFRQIAWIKKLPFFCELSIKDYTCLLSSTWQELILLSSLTVYSKQIFGELADVTAKYSPSDEELHRFSDEGMEVIERLIYLYHKFHQLKVSNEEYACMKAINFLNQDIRGLTSASQLEQLNKRYWYICQDFTEYKYTHQPNRFPDLMMCLPEIRYIAGKMVNVPLEQLPLLFKVVLHSCKTSVGKE
B3: NR4a2: NR4a2 (NR4A2; NURR1), nuclear hormone receptor cDNA driver (protein, UniProt P43354 1-598, looked up)
Nuclear receptor subfamily 4 …: MPCVQAQYGSSPQGASPASQSYSYHSSGEYSSDFLTPEFVKFSMDLTNTEITATTSLPSFSTFMDNYSTGYDVKPPCLYQMPLSGQQSSIKVEDIQMHNYQQHSHLPPQSEEMMPHSGSVYYKPSSPPTPTTPGFQVQHSPMWDDPGSLHNFHQNYVATTHMIEQRKTPVSRLSLFSFKQSPPGTPVSSCQMRFDGPLHVPMNPEPAGSHHVVDGQTFAVPNPIRKPASMGFPGLQIGHASQLLDTQVPSPPSRGSPSNEGLCAVCGDNAACQHYGVRTCEGCKGFFKRTVQKNAKYVCLANKNCPVDKRRRNRCQYCRFQKCLAVGMVKEVVRTDSLKGRRGRLPSKPKSPQEPSPPSPPVSLISALVRAHVDSNPAMTSLDYSRFQANPDYQMSGDDTQHIQQFYDLLTGSMEIIRGWAEKIPGFADLPKADQDLLFESAFLELFVLRLAYRSNPVEGKLIFCNGVVLHRLQCVRGFGEWIDSIVEFSSNLQNMNIDISAFSCIAALAMVTERHGLKEPKRVEELQNKIVNCLKDHVTFNNGGLNRPNYLSKLLGKLPELRTLCTQGLQRIFYLKLEDLVPPPAIIDKLFLDTLPF
B4: SHP: Small Heterodimer Partner (NR0B2), cDNA driver (protein, UniProt Q15466 1-257, looked up)
Nuclear receptor subfamily 0 …: MSTSQPGACPCQGAASRPAILYALLSSSLKAVPRPRSRCLCRQHRPVQLCAPHRTCREALDVLAKTVAFLRNLPSFWQLPPQDQRRLLQGCWGPLFLLGLAQDAVTFEVAEAPVPSILKKILLEEPSSSGGSGQLPDRPQPSLAAVQWLQCCLESFWSLELSPKEYACLKGTILFNPDVPGLQAASHIGHLQQEAHWVLCEVLEPWCPAAQGRLTRVLLTASTLKSIPTSLLGDLFFRPIIGDVDIAGLLGDMLLLR
B5: DAX-1: DAX1 (NR0B1), cDNA driver (protein, UniProt P51843 1-470, looked up)
Nuclear receptor subfamily 0 …: MAGENHQWQGSILYNMLMSAKQTRAAPEAPETRLVDQCWGCSCGDEPGVGREGLLGGRNVALLYRCCFCGKDHPRQGSILYSMLTSAKQTYAAPKAPEATLGPCWGCSCGSDPGVGRAGLPGGRPVALLYRCCFCGEDHPRQGSILYSLLTSSKQTHVAPAAPEARPGGAWWDRSYFAQRPGGKEALPGGRATALLYRCCFCGEDHPQQGSTLYCVPTSTNQAQAAPEERPRAPWWDTSSGALRPVALKSPQVVCEAASAGLLKTLRFVKYLPCFQVLPLDQQLVLVRNCWASLLMLELAQDRLQFETVEVSEPSMLQKILTTRRRETGGNEPLPVPTLQHHLAPPAEARKVPSASQVQAIKCFLSKCWSLNISTKEYAYLKGTVLFNPDVPGLQCVKYIQGLQWGTQQILSEHTRMTHQGPHDRFIELNSTLFLLRFINANVIAELFFRPIIGTVSMDDMMLEMLCTKI

Key:
mPer1 promoter = assay: NHR-promoter luciferase screen, mPer1 promoter; type: cell-based, mouse; conditions: for Luc. act., normalized to lacZ / Normalized Luc. act., normalized to control: Per1 promoter reporter, co-transfected HR, with or without its ligand; for Normalized Luc. act., normalized to control: relative to control; for luciferase activity normalized to lacZ activity and to a control, mPer1: mPer1 promoter-luciferase, CV-1 cells, NHR +/- ligand, control = 1.00
In short: (§1)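 CV-1 cells were co-transfected with 50 ng NHR (homodimer or NHR/RXR heterodimer), 100 ng promoter-luciferase construct and 50 ng LacZ. Luciferase was normalized to LacZ and to a no-NHR/no-ligand control.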

hMDR1 promoter = assay: NHR-promoter luciferase screen, hMDR1 promoter; type: cell-based, human; conditions: for Luc. act., normalized to lacZ / Normalized Luc. act., normalized to control: MDR1 promoter, HR/ligand component; for hMDR1 promoter reporter activity: transcription factor +/- ligand, control = 1.00
In short: as §1

mADRP promoter = assay: NHR-promoter luciferase screen, mADRP promoter; type: cell-based, mouse; conditions: for Luc. act., normalized to lacZ / Normalized Luc. act., normalized to control: ADRP promoter, HR/ligand component; for mADRP promoter reporter activity: transcription factor +/- ligand, control = 1.00
In short: as §1

mDio2 promoter = assay: NHR-promoter luciferase screen, mDio2 promoter; type: cell-based, mouse; conditions: for Luc. act., normalized to lacZ / Normalized Luc. act., normalized to control: Dio2, HR component without or with its ligand; for mDio2 promoter reporter activity: transcription factor +/- ligand, control = 1.00
In short: as §1

RevErba promoter = assay: NHR-promoter luciferase screen, RevErba (RVRa) promoter; type: cell-based; set-up: key to mRevErba promoter reporter activity / Normalized Luc. act., normalized to control: luciferase activity normalized to lacZ and to control (no NHR/ligand); conditions: for Luc. act., normalized to lacZ / Normalized Luc. act., normalized to control / negative reciprocal of normalized Luc. act. (fold repression; Table 33) / normalized Luc. act. on a logarithmic scale (column without head, Table 33): RVRa promoter; for Luc. act., normalized to lacZ / Normalized Luc. act., normalized to control: HR component without or with ligand; for negative reciprocal of normalized Luc. act. (fold repression; Table 33): given only where activity is below control; for normalized Luc. act. on a logarithmic scale (column without head, Table 33): log10 of activity normalized to control; for mRevErba promoter reporter activity: transcription factor +/- ligand, control = 1.00
In short: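 Reporter readout: RevErbα promoter-driven luciferase, corrected for LacZ transfection efficiency and expressed relative to a no-receptor or no-ligand control. Receptors (V5H6-tagged, pcDNA3.1), alone or with RXR, plus any ligand, were expressed in CV-1 cells.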

Molecule | Luc. act., normalized to lacZ (mPer1 promoter) | Normalized Luc. act., normalized to control (mPer1 promoter) | luciferase activity normalized to lacZ activity and to a control, mPer1 (mPer1 promoter) | Luc. act., normalized to lacZ (hMDR1 promoter) | Normalized Luc. act., normalized to control (hMDR1 promoter) | hMDR1 promoter reporter activity (hMDR1 promoter) | Luc. act., normalized to lacZ (mADRP promoter) | Normalized Luc. act., normalized to control (mADRP promoter) | mADRP promoter reporter activity (mADRP promoter) | Luc. act., normalized to lacZ (mDio2 promoter) | Normalized Luc. act., normalized to control (mDio2 promoter) | mDio2 promoter reporter activity (mDio2 promoter) | Luc. act., normalized to lacZ (RevErba promoter) | Normalized Luc. act., normalized to control (RevErba promoter) | negative reciprocal of normalized Luc. act. (fold repression; Table 33) (RevErba promoter) | normalized Luc. act. on a logarithmic scale (column without head, Table 33) (RevErba promoter) | mRevErba promoter reporter activity (RevErba promoter)
B1 | 139.6 | 1.0 | 0.97 | 0.2 | 0.7 | 0.65 | 351.6 | 0.7 | 0.71 | 14.8 | 0.9 | 0.94 | 14.7 | 0.5 | −1.9 | −0.28 | 0.53
B2 | 151.9 | 1.1 | 1.06 | 0.3 | 0.8 | 0.83 | 523.7 | 1.1 | 1.05 | 22.7 | 1.4 | 1.44 | 25.7 | 0.9 | −1.087 | −0.04 | 0.92
B3 | 155.3 | 1.1 | 1.08 | 0.2 | 0.7 | 0.74 | 382.8 | 0.8 | 0.77 | 12.4 | 0.8 | 0.79 | 20.6 | 0.7 | −1.357 | −0.13 | 0.74
B4 | 130.3 | 0.9 | 0.90 | 0.3 | 0.8 | 0.84 | 421.4 | 0.8 | 0.85 | 18.4 | 1.2 | 1.17 | 22.7 | 0.8 | −1.229 | −0.09 | 0.81
B5 | 153.4 | 1.1 | 1.07 | 0.3 | 0.9 | 0.89 | 419.9 | 0.8 | 0.84 | 18.7 | 1.2 | 1.19 | 29.4 | 1.1 |  | 0.02 | 1.05
